Experimental data reported in the supplement of paper PMC10567573.

B1: KRT71 (parent)
chain: FGSRSLYSLGGVRSLNVASGSGKS
B2: CDC25B (parent)
chain: ELKTFRLKTRSWAGERSRRELCSR

Variants of: B1
Assay: protein stability index of a GFP-peptide fusion (GPS, HEK-293T) (PSI 1-6); higher = more stable
Conditions: c terminus: a fixed tail appended
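Also: lentivirally expressed fusions sorted by FACS into six bins by GFP to DsRed ratio, PSI derived from sequencing read proportions per bin multiplied by bin number.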

Row | Variant | protein stability index
1 | G22T | 1.45
2 | G22V | 1.33
3 | G22W | 2.36
4 | G22Y | 2.44
5 | K23A | 1.47
6 | K23C | 1.97
7 | K23D | 1.92
8 | K23E | 2.03
9 | K23F | 2.47
10 | K23G | 2.09
11 | K23H | 2.03
12 | K23I | 2.12
13 | K23L | 1.74
14 | K23M | 1.49
15 | K23N | 2.09
16 | K23P | 2.15
17 | K23Q | 1.77
18 | K23R | 2.35
19 | K23S | 1.9
20 | K23T | 1.56
21 | K23V | 1.88

Row | Variant | protein stability index
22 | K23W | 2.56
23 | K23Y | 1.69
24 | S24A | 1.73
25 | S24C | 1.71
26 | S24D | 1.89
27 | S24E | 2.21
28 | S24F | 1.41
29 | S24G | 1.97
30 | S24H | 1.66
31 | S24I | 1.61
32 | S24K | 2.22
33 | S24L | 1.76
34 | S24M | 1.62
35 | S24N | 1.7
36 | S24P | 2.33
37 | S24Q | 1.55
38 | S24R | 1.49
39 | S24T | 1.81
40 | S24V | 1.26
41 | S24W | 1.74
42 | S24Y | 1.39

Variants of: B2
Assay: as above
Conditions: c terminus: a fixed tail appended

Row | Variant | protein stability index
43 | E1A | 3.96
44 | E1C | 3.07
45 | E1D | 3.03
46 | E1F | 1.95
47 | E1G | 3.09
48 | E1H | 3.29
49 | E1I | 1.9
50 | E1K | 2.97
51 | E1L | 2.8
52 | E1M | 2.2
53 | E1N | 3.01
54 | E1P | 3.72
55 | E1Q | 3.57
56 | E1R | 3.03
57 | E1S | 3.2
58 | E1T | 2.69
59 | E1V | 3.31
60 | E1W | 2.6
61 | E1Y | 2.19
62 | L2A | 4.42
63 | L2C | 4.24
64 | L2D | 3.81
65 | L2E | 4.97
66 | L2F | 2.54
67 | L2G | 3.75

Row | Variant | protein stability index
68 | L2H | 3.74
69 | L2I | 3.17
70 | L2K | 3.53
71 | L2M | 3.87
72 | L2N | 4.04
73 | L2P | 3.89
74 | L2Q | 4.5
75 | L2R | 3.67
76 | L2S | 4.12
77 | L2T | 3.72
78 | L2V | 3.44
79 | L2W | 2.83
80 | L2Y | 3.78
81 | K3A | 2.92
82 | K3C | 2.78
83 | K3D | 3.33
84 | K3E | 3.29
85 | K3F | 1.61
86 | K3G | 3.71
87 | K3H | 3.63
88 | K3I | 1.89
89 | K3L | 2.14
90 | K3M | 3.02
91 | K3N | 3.38
92 | K3P | 3.42

Row | Variant | protein stability index
93 | K3Q | 3.25
94 | K3R | 3.6
95 | K3S | 3.62
96 | K3T | 3.2
97 | K3V | 2.67
98 | K3W | 2.44
99 | K3Y | 2.91
100 | T4A | 3.47
101 | T4C | 2.56
102 | T4D | 4.42
103 | T4E | 3.16
104 | T4F | 2.79
105 | T4G | 2.9
106 | T4H | 3.27
107 | T4I | 2.26
108 | T4K | 2.61
109 | T4L | 2.85
110 | T4M | 2.96
111 | T4N | 2.09
112 | T4P | 3.41
113 | T4Q | 3.18
114 | T4R | 2.52
115 | T4S | 3.6
116 | T4V | 3.27
117 | T4Y | 3.27

Row | Variant | protein stability index
118 | F5A | 4.09
119 | F5C | 3.09
120 | F5D | 4.08
121 | F5E | 2.5
122 | F5G | 3.69
123 | F5H | 3.92
124 | F5I | 3.59
125 | F5K | 4.24
126 | F5L | 3.65
127 | F5M | 3.6
128 | F5N | 3.63
129 | F5P | 4.43
130 | F5Q | 3.67
131 | F5R | 3.78
132 | F5S | 3.94
133 | F5T | 3.82
134 | F5V | 3.96
135 | F5W | 2.87
136 | F5Y | 3.94
137 | R6A | 2.78
138 | R6C | 2.14
139 | R6D | 3.17
140 | R6E | 1.84
141 | R6F | 1.75
142 | R6G | 3.34

Row | Variant | protein stability index
143 | R6H | 3.25
144 | R6I | 2.06
145 | R6K | 2.85
146 | R6L | 2.04
147 | R6M | 2.14
148 | R6N | 3.3
149 | R6P | 3.75
150 | R6Q | 3.75
151 | R6S | 3.33
152 | R6T | 3.39
153 | R6V | 2.32
154 | R6W | 1.89
155 | R6Y | 2.42
156 | L7A | 3.75
157 | L7C | 3.98
158 | L7D | 3.86
159 | L7E | 4.07
160 | L7G | 4.12
161 | L7H | 3.6
162 | L7I | 3.25
163 | L7K | 4.68
164 | L7M | 3.81
165 | L7N | 3.57
166 | L7P | 3.99
167 | L7Q | 3.75
